± gives the uncertainty stated by the source.
Assay: amyloid nucleation score (Sup35N fusion, yeast selection) (log enrichment); library NNK3; higher = more nucleation; inactive = no reads after selection
Outline: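 Peptides of 20 random codons, each fused to Sup35N, were expressed in psi-negative yeast. Cells were induced with 100 μM copper sulfate for 24 hours and grown 7 days at 30°C on medium lacking adenine and uracil, and plasmid inserts before and after selection were Illumina-sequenced. Nucleation scores are DiMSum log enrichments of output over input reads, centred on the mode score of non-aggregating sequences, and sequences under 100 input reads were excluded.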

| Substance | amyloid nucleation score |
| --- | --- |
| FFASSIYQRALYTVILSSPT | inactive |
| FFCFLDYDYSIFEQVNEGLS | inactive |
| FFCGFRKTAASHFLFLVKDW | inactive |
| FFECSRRSSVLVQMS | inactive |
| FFLRSGCTIWTNSK | inactive |
| FFPCTGVRHSRDIAVV | inactive |
| FFRDQLRRLYLSSALMQFRM | inactive |
| FFRNDCGHVFSYVAGSES | inactive |
| FFRTGFLVGNSSEYYMQY | 0.215 ± 0.46 |
| FFSFTISMAWKGQVTELKCQ | inactive |
| FFVRH | inactive |
| FFVTR | inactive |
| FFYNDVETVCNVICPKVYSD | inactive |
| FGELS | inactive |
| FGGLWLICSVVYTLNCRSMV | 1.79 ± 0.081 |
| FGGSILTSYINGRGSAGLNW | 0.797 ± 0.22 |
| FGHYRYEFCELSGHGMGVDA | inactive |
| FGINDCVIRV | inactive |
| FGKRQSAMLLDLNSGWSNLD | -0.42 ± 1.3 |
| FGLYYRLPNNCNKTGNQFTV | inactive |
| FGQLGVVNGFTELWQRLCSW | inactive |
| FGQSLAEIRFLFIPIDKMRR | inactive |
| FGRTHAYSLFQKKSGFLLTP | inactive |
| FGSFVRSMALESYLNYINAA | inactive |

| Substance | amyloid nucleation score |
| --- | --- |
| FGTCLNLYL | 1.3 ± 0.11 |
| FGTLFSTVFRVLRFNRISAP | inactive |
| FGVFVWEVVVGNMLLPHMVN | inactive |
| FGYVQVTKDPSFMCNYGMQS | inactive |
| FGYYTWTAYER | inactive |
| FHGYRLVYPSDYPWCLSSVH | inactive |
| FHNCLGTNKNGVLLNGMVWN | inactive |
| FHSWIFQTISLPGQGYRLQ | inactive |
| FHWYFAVSYTSYNMLSVWFV | inactive |
| FIANGSDILADLFLHTSFHG | inactive |
| FIASNASNCWYLMFVAKLYG | inactive |
| FICVCSNWGFIQNMITAPDW | 2.77 ± 0.074 |
| FIDQVDIVVCWSTWAI | inactive |
| FIEVEVWRESSR | inactive |
| FIEVYCKMGCLRYLVWGWSD | inactive |
| FIFAG | inactive |
| FIGDVLGSINGKCHLEYLYF | inactive |
| FIGLIVLILRVFGYDTMRYL | inactive |
| FIHLMLNMRFWRNTFNMPHA | inactive |
| FIHMCISFSGYFYDYCFNFN | inactive |
| FILNRLTRIIWDF | inactive |
| FILRDHRLSLSNCAMKCPQG | inactive |
| FILRVFMA | inactive |
| FINAVAIRMIILVSRTRPTF | 0.984 ± 0.12 |

| Substance | amyloid nucleation score |
| --- | --- |
| FINMKIKQTYMRVFFWICAV | inactive |
| FIPGMQA | inactive |
| FIRKSPWQRFDTHFGIIDFK | 0.778 ± 0.17 |
| FISHRARWISDESYIICHFV | -0.067 ± 1.1 |
| FISLWQPPRL | inactive |
| FISSRLFTALLSRCNFHNRF | inactive |
| FIVSNYKSFVLYHLLNRMLV | inactive |
| FIYIRYPHRRS | inactive |
| FIYYDRFVKPSPKQTVSFSA | inactive |
| FKAWMSLKLSTRRLNSCVPR | inactive |
| FKFGLQLIRCMDFHWMF | inactive |
| FKGPVDCSVIV | inactive |
| FKLTDLCC | inactive |
| FKLVGDIYYQYVYALPRNKL | inactive |
| FKRTTMCGDYAVYVTPGTSL | inactive |
| FKSVIESTLMIETDY | inactive |
| FKTKDIVRKDEANSHWSMSG | inactive |
| FKYLRCNNIIVCPVVMVHLT | 0.345 ± 0.22 |
| FLCRAVRDKNHDIGLCWELR | -0.488 ± 0.8 |
| FLDDSFVFGNRRRWAWGCRG | inactive |
| FLDVFLEFSILIFPSVTFKC | inactive |
| FLETV | inactive |
| FLFRC | inactive |
| FLFRRLGRSYYKYAV | inactive |

| Substance | amyloid nucleation score |
| --- | --- |
| FLFSW | -0.483 ± 1.9 |
| FLFVCLSLIALTGADSLVQA | inactive |
| FLGCNRV | inactive |
| FLGSYSLTDRIRWVTFPLFQ | inactive |
| FLHQGT | inactive |
| FLIKSFWNMIVCEAGDCCKD | 1.75 ± 0.12 |
| FLKCGRSVPGV | inactive |
| FLKLGDSGRVYLLCFLAQVS | inactive |
| FLLIIHHST | -0.126 ± 0.6 |
| FLMFKIPDTARELHVNSGLG | inactive |
| FLMVGKISKMFKQYNLLFH | inactive |
| FLMVLSMDLYVKLLLGSYIN | inactive |
| FLNTLFYHMGT | inactive |
| FLPCRFHNSLTDND | inactive |
| FLPRLSNIWPNFDSSEQLRY | inactive |
| FLRLSMKLHNLWYLLGSLWS | inactive |
| FLRRGCLFRQT | inactive |
| FLSYLSSIPAPYLNGSAGTT | inactive |
| FLTFHGC | inactive |
| FLVCHDYAYETVG | inactive |
| FLVCSGSNVWTREASHGGGN | -0.188 ± 0.47 |
| FLVLFTL | inactive |
| FLVLLKTCYDSRPWP | 1.72 ± 0.094 |
| FLVLTNHRGARVRASCVMDR | inactive |

| Substance | amyloid nucleation score |
| --- | --- |
| FLWMSGSSGWLSTVVIGGSW | inactive |
| FLYYATGHRIFLV | inactive |
| FMDKLIESFTYCWCTFGYAH | inactive |
| FMINSNNRFGISRRTLMSLT | inactive |
| FMKSMVLYPDTVLFYFCLLH | inactive |
| FMPHARASQQLPGGSHFLNL | inactive |
| FMRDIKLTGGCGVNCAHLHA | inactive |
| FMSSVM | inactive |
| FMVSMIIESSAGTFFMLSLV | inactive |
| FMYMMFERQLPMWDNELLH | -0.251 ± 0.66 |
| FNAKFFSQNMSVWCGVFM | 2.6 ± 0.078 |
| FNCLHIYWMM | 0.372 ± 0.42 |
| FNFFQCFRQNASTIFSSGML | inactive |
| FNFFTKVASDHRNI | inactive |
| FNFLPNGWRGKVHIGYYGNT | inactive |
| FNGEGFSRQG | -0.457 ± 1.8 |
| FNIYCVGPNYATRGAGWVLL | 1.78 ± 0.095 |
| FNMYFCVIWLCDSFLIMCG | inactive |
| FNPCRGCYETKFHVYRLSRL | 0.584 ± 0.28 |
| FNQFHFKCSFNQCCYLNQAA | inactive |
| FNQQLSECVDVARELAGG | 1.99 ± 0.086 |
| FNSGCYT | inactive |

From the supplement of paper PMC12042874
